This passage reports percent of truncated collagen XII in the pellet (90 mM NaCl, 30 mM phosphate) and stoichiometry N results from paper PMC2199960.

Assay [1] concerns the target collagen I from rat tail (rat) (UniProt P02454). Nature of the assay: co-sedimentation.
Assay [2] has as its target NC3 domain of the small collagen XII subunit (190 kD) (chick). Nature of the assay: two-dimensional SDS-PAGE.
In assay [3] the target is collagen XII, small variant (small subunit, 220 kD) (chick). Nature of the assay: electron microscopy.
For assay [4] the target is unchanged. The assay is described as follows: electron microscopy + nonreducing SDS-PAGE.

collagen I from rat tail (rat), sequence (P02454 152-1207, chain 1 of 2): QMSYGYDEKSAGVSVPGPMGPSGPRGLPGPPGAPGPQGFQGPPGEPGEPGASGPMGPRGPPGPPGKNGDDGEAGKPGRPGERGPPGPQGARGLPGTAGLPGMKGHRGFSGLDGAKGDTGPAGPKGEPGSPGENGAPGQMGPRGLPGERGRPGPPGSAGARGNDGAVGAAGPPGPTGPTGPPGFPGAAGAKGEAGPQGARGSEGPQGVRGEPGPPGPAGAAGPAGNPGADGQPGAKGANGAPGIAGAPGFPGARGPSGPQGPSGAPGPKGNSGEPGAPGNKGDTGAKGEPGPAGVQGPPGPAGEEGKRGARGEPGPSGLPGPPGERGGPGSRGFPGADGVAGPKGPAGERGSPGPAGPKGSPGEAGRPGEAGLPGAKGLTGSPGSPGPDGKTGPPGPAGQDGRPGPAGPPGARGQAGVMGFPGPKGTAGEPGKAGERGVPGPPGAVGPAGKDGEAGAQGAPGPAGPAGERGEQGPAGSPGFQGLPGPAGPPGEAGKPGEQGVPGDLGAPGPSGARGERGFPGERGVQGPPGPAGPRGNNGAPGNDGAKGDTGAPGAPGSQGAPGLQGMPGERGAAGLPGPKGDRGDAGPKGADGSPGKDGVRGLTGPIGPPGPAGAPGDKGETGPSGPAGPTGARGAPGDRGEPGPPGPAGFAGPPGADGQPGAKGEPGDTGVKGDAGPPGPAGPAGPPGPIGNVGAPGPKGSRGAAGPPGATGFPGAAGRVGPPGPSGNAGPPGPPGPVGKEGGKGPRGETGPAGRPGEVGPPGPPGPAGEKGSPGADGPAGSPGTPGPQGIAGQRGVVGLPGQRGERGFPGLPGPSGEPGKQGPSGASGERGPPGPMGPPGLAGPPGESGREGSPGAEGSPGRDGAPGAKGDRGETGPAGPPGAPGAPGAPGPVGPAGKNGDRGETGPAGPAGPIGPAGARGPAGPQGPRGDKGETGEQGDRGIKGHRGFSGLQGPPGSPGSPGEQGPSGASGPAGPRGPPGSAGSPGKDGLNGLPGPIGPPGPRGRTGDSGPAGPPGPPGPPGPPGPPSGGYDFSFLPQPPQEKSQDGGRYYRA
collagen I from rat tail (rat), sequence (P02466 86-1125, chain 2 of 2, further chain): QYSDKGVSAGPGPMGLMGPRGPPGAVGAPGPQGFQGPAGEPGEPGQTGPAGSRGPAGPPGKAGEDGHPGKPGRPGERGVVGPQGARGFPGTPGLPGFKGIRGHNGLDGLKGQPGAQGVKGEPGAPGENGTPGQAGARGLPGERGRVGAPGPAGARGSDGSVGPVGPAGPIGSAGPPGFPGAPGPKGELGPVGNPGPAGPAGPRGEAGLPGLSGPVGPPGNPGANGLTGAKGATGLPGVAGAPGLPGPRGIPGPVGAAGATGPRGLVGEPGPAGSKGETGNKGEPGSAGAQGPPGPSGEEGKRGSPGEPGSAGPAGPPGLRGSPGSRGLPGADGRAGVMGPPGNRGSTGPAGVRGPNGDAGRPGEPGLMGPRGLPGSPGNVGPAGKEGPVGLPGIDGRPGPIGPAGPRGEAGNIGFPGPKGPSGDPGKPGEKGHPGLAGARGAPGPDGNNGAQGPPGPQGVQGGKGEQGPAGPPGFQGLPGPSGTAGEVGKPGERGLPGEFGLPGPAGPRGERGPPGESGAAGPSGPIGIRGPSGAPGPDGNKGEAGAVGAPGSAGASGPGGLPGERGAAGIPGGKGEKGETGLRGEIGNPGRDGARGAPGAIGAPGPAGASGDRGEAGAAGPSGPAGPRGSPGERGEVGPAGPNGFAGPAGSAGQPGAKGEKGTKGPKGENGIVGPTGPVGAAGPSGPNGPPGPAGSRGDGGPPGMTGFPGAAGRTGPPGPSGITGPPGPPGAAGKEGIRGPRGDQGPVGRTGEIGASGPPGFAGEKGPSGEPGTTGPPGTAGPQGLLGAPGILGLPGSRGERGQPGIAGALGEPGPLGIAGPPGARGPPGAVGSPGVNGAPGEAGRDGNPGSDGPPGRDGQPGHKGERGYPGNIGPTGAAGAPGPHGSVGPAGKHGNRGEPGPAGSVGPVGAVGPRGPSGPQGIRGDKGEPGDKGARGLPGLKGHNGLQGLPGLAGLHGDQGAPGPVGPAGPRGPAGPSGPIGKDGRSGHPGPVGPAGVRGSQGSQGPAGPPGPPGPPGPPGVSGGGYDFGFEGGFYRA

Take “NC3 domain of the large collagen XII subunit (290 kD), collagenase-treated collagen XII (domain or fragment)”: in assay [1], the percent of truncated collagen XII in the pellet (90 mM NaCl, 30 mM phosphate) was 20%.
“NC3 domain of the small collagen XII subunit (190 kD) (domain or fragment)” registered a stoichiometry N in assay [2] of 3.
Regarding “collagen XII, small variant (small subunit, 220 kD) (natural protein)”, the stoichiometry N in assay [3] and in assay [4] was 3 throughout.
